These results are taken from PMC11154707, “Polymer-based antibody mimetics (iBodies) target human PD-L1 and function as a potent immune checkpoint blocker” (The Journal of Biological Chemistry, 2024).

The target in assay [1] is T1, PD-1/PD-L1 engagement (hPD-L1-overexpressing Raji B cells, hPD-1-overexpressing Jurkat T cells) (Homo sapiens, UniProt Q9NZQ7).
T1 construct: expressed in transfected cells; host or cells: Raji B cells (PD-L1) co-cultured with Jurkat T cells (PD-1)
Nature of the assay: IL-2 production in PD-L1 Raji B / PD-1 Jurkat T cell co-culture with SEE. Conditions: 25 pg/ml SEE, 24 h co-culture, IL-2 ELISA of supernatants; read-out: EC50 of restored T cell activation (IL-2). Format: cell-based. As for the experimental part:
(§1) B, PD-L1-overexpressing Raji B cells were pre-incubated with a dilution series of α-PD-L1 compounds in the presence of 25 pg/ml SEE for 1 h and then co-cultured in a 1:1 ratio with PD-1-overexpressing Jurkat T cells for 24 h. Supernatants were collected, and IL-2 levels were measured using ELISA. EC50 was calculated using a 4-parameter logistic function in GraphPad Prism 9.0.0. Data are representative of five independent experiments performed in duplicates, with error bars indicating the standard deviation. C, PD-L1-overexpressing Raji B cells were pre-incubated with 2 nM of α-PD-L1 compounds in the presence of 25 pg/ml SEE for 1 h and then co-cultured in a 1:1 ratio with PD-1-overexpressing Jurkat T cells for 18 h. Cells were collected and stained with BV421-conjugated anti-human CD69 antibody. […] Cells were measured with a BD LSRFortessa instrument (Fig. S9). Data are represented as median fluorescence intensity (MFI). Error bars indicate the standard deviation. D, histograms indicate the percentage of CD69-expressing cells (gated above the basal CD69 expression in the absence of SEE; no SEE). Data were analyzed with FlowJo 10.4.1 and are representative of three independent experiments performed in duplicates. MFI comparison was carried out using a one-way ANOVA test in GraphPad Prism 9.0.0. ∗∗ indicates p-value < 0.01; ns = not significant.
(An ELISA detects its analyte on a solid surface through an enzyme-linked reagent.)

Assay [2] has as its target T1, PD-1/PD-L1 engagement (hPD-L1-overexpressing Raji B cells, hPD-1-overexpressing Jurkat T cells). Put plainly: Membrane CD69 expression in PD-L1 Raji B / PD-1 Jurkat T cell co-culture with SEE. The class given is cell-based. Particulars: 2 nM compound, 18 h co-culture; for overall expression of CD69 compared with non-treated samples: MFI, one-way ANOVA; for % CD69 (percentage of CD69-expressing cells): gated above basal CD69 without SEE. The method, then: as §1
Co-culture for analysis of CD69 expression was set up similarly as above, except that cells were incubated for 18 h in the presence of 2 nM of all compounds. Next, cells were collected by centrifugation (600g, 6 min) and washed once with 200 μl PBS. Corresponding wells were stained with 100 μl of 1:100 BV421-anti-human CD69 antibody (BD Biosciences, cat# 562884) or 100 ng/well isotype control antibody (BD Biosciences cat# 562438) in PBS for 30 min at 4 °C. Afterwards, cells were washed three times with 200 μl PBS followed by viability staining using 100 μl of 1:1000 Zombie NIR fixable viability kit (Biolegend, cat# 423106) in PBS. Finally, the measurement was carried out on an LSRFortessa Flow Cytometer (Becton, Dickinson and Company) and analyzed with FlowJo 10.4.1. The cell population was gated based on their forward and side scatter properties, followed by gating for single and viable cells. The Gating strategy is explained in the Fig. S9.

Assay [3] deals with PD-L1. Also noted: method as in http://en.atagenix.com/product_detail-23647.html, 30. Particulars: indirect ELISA; ref http://en.atagenix.com/product_detail-23647.html, 30; read-out: published EC50, indirect ELISA; cited from earlier work.
Assay [4] concerns the target PD-L1. Particulars: read-out: published Kd; cited from earlier work.

T1 sequence (Q9NZQ7 19-290): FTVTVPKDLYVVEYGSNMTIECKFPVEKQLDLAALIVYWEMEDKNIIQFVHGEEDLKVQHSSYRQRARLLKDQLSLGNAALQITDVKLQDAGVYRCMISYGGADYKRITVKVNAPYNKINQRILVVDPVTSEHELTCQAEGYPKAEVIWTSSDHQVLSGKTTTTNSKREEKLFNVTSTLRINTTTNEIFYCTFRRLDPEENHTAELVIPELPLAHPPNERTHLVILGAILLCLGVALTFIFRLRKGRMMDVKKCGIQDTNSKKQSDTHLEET

One may read the EC50 as the concentration needed to bring the measured effect to its halfway point. On to “durvalumab: FDA-approved PD-L1-targeting monoclonal antibody”, for which the concentration for a half-maximal effect (EC50) in assay [1] was 0.6 nM; in the assay on PD-L1 [3], roughly 0.32 nM. In addition, in assay [2], the “overall expression of CD69 compared with non-treated samples” value is “substantial increase”. Further, in assay [2], the “% CD69 (percentage of CD69-expressing cells)” value amounted to 36±1%.

For “atezolizumab: FDA-approved PD-L1-targeting monoclonal antibody”, in assay [1], the EC50 turned out to be 0.3 nM. Further, in assay [2], the “overall expression of CD69 compared with non-treated samples” value was “substantial increase” and the “% CD69 (percentage of CD69-expressing cells)” value came to 33±4%.

In general, Kd refers to the concentration at which binding is half-saturated. As for “avelumab: FDA-approved PD-L1-targeting monoclonal antibody”, on PD-L1 [4], the Kd was 0.04 nM.
